Results taken from patent US20210380703A1 (RIGEL PHARMACEUTICALS, published 2021).
Residue numbers refer to the chain shown, from its start.

B1: 370_A03 (antibody, V domains shown)
VH: EVQLLESGGGLVQPGGSLRLSCAASGFTFSSYSMNWVRQAPGKGLEWVSNINYNGGYTSYADSVKGRFTISRDNSKNTLYLQMNSLRAEDTAVYYCARSANWHDTALDYWGQGTLVTVSS
VL: DIQMTQSPSSLSASVGDRVTITCRASQSILSYLNWYQQKPGKAPKLLIYAATSRASGVPSRFSGSGSGTDFTLTISSLQPEDFATYYCQQSYDSPLTFGGGTKVEIK
B2: 366_A06 (antibody, V domains shown)
VH: B1 VH with S31D, S49A, N50S, T58K, S99G, A106H
VL: not shown
notes: Group III
B3: 366_B05 (antibody, V domains shown)
VH: B1 VH with S31D, N50G, G55S, T58K, S99G
VL: B1 VL with L30S, L47V, A51V, D93E, S94L
notes: Group III
B4: 366_A08 (antibody, V domains shown)
VH: B1 VH with S30D, S31D, N50G, G55S, T58K, S59G, S99G, A106H
VL: B1 VL with L30V, L33V, L47V, D93N
notes: Group III
B5: 367_F03 (antibody, V domains shown)
VH: B1 VH with S49A, N50G, G55S, T58K
VL: B1 VL with L33V, L47V, R54L, Y92D, S94T
B6: 367_D10 (antibody, V domains shown)
VH: B1 VH with S30D, S33G
VL: B1 VL with L30I, L47V, S94T
B7: 367_F11 (antibody, V domains shown)
VH: B1 VH with S49A, N50G, G55S, S59G, A106H
VL: not shown
B8: 368_D11 (antibody, V domains shown)
VH: B1 VH with S30D, S31D, S33G, T58K
VL: B1 VL with S31T, L47V, S94L
B9: 368_E01 (antibody, V domains shown)
VH: B1 VH with S49A, N50S, G55S, S59G, A106H
VL: B1 VL with A51V, A55H, D93S, S94L
B10: 368_A07 (antibody, V domains shown)
VH: B1 VH with S49A, N50G, G55S, A106H
VL: B1 VL with S31T, L47V, A51T, Y92N, D93E, S94L
B11: 367_F07 (antibody, V domains shown)
VH: B1 VH with S30D, S33G, N35H, S49A, S59G
VL: B1 VL with L30I, L33V, D93E, S94T
B12: 368_D04 (antibody, V domains shown)
VH: B1 VH with S33G, N50G, T58K
VL: B1 VL with L30S, S31T, L33V, L47V, A51V, A55H
B13: 367_C11 (antibody, V domains shown)
VH: B1 VH with S30D, N50S, G55S, S59G, A106H
VL: B1 VL with L47V, A55H, D93N, S94T
B14: 367_E11 (antibody, V domains shown)
VH: B1 VH with S30D, S33G, N50S, G55S, T58K, S59G, A106H
VL: B1 VL with L30V, L33V, L47V, A55H, S94T
B15: 368_A05 (antibody, V domains shown)
VH: B1 VH with S49A, N50G, G55S, S59G
VL: B1 VL with L30V, L47V
B16: 368_B07 (antibody, V domains shown)
VH: B1 VH with S31D, T58K
VL: B1 VL with L30V, R54L, D93S
B17: 367_E04 (antibody, V domains shown)
VH: B1 VH with S31D, N50S, T58K, S59G, A106H
VL: B1 VL with D93E
B18: 368_B06 (antibody, V domains shown)
VH: B1 VH with S30D, S33G, N35H, N50G, G55S
VL: not shown
B19: 368_A01 (antibody, V domains shown)
VH: B1 VH with S33G
VL: B1 VL with L30I, A55H, S94N
B20: 368_C05 (antibody, V domains shown)
VH: B1 VH with S30D, S33G, N50G, G55S
VL: B1 VL with L47V, Y92D, D93S, S94N
B21: 367_C01 (antibody, V domains shown)
VH: B1 VH with S30D, S31D, N50G, T58K, A106H
VL: B1 VL with S31T, L47V, A51T, R54L, A55H, S94T
B22: 368_D05 (antibody, V domains shown)
VH: B1 VH with N50G
VL: B1 VL with S31T, L47V, Y92D
B23: 367_E06 (antibody, V domains shown)
VH: B1 VH with S30D, N50S, G55S, T58K, S59G, A106H
VL: not shown
B24: 367_E01 (antibody, V domains shown)
VH: B1 VH with S33G, S49A, N50G, T58K
VL: B1 VL with L33V, A51T, S94L
B25: 367_G06 (antibody, V domains shown)
VH: B1 VH with S33G, N50G, G55S, T58K, A106H
VL: B1 VL with S31T, L33V, A51T, R54L, A55H, S94T
B26: 368_B01 (antibody, V domains shown)
VH: B1 VH with S33G, N50G, G55S, T58K
VL: B1 VL with L30S, D93E, S94T
B27: 367_G10 (antibody, V domains shown)
VH: B1 VH with S30D, S31D, S33G, N50G
VL: B1 VL with L30I, L33V
B28: 368_D01 (antibody, V domains shown)
VH: B1 VH with S33G, N35H, S49A
VL: B1 VL with L47V, Y92D, D93S, S94T
B29: 368_A09 (antibody, V domains shown)
VH: B1 VH with S30D, N50G, A106H
VL: B1 VL with L33V, A51V
B30: 367_H11 (antibody, V domains shown)
VH: B1 VH with S33G, S49A, N50G, T58K, S59G
VL: B1 VL with L30I, L33V, L47V, D93N
B31: 367_E09 (antibody, V domains shown)
VH: B1 VH with S31D, S33G, S49A, N50S, G55S, T58K, S59G
VL: B1 VL with L47V, A51T, D93E, S94T
B32: 367_H06 (antibody, V domains shown)
VH: B1 VH with S33G, S59G, A106H
VL: B1 VL with L30I, S31T, S94T
B33: 367_G05 (antibody, V domains shown)
VH: B1 VH with S31D, S33G, S49A
VL: B1 VL with L30V, L47V, R54L, S94T
B34: 367_C05 (antibody, V domains shown)
VH: B1 VH with S30D, S31D, S33G, N50S, S59G, A106H
VL: B1 VL with L33V, L47V, A55H, S94L

Experiments:
Human ACVR2A [1] = target: T1, Human ACVR2A (human, UniProt P27037 20-135, limits assumed); assay: ELISA
T1 construct: also called activin receptor, type II A
T1 sequence (P27037 20-135 limits assumed): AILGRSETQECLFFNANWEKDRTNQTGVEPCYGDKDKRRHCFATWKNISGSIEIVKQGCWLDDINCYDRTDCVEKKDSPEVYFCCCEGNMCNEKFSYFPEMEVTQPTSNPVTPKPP
In short: (§1)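 mAb binding by ELISA; antigens: hu ACVR2A, mu ACVR2A; pos ctrl biotinylated goat anti-hu kappa LC; neg ctrl hu Fc.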

Mouse ACVR2A [2] = target: Mouse ACVR2A (mouse, UniProt P27038 20-135, limits assumed); assay: ELISA
Sequence of Mouse ACVR2A (P27038 20-135 limits assumed): as the sequence (P27037 20-135 limits assumed) above, with K20R, V73I counted along it
In short: as §1

Goat anti-Human Kappa = target: T2, Goat anti-Human Kappa; assay: ELISA, positive control
T2 construct: Positive control of the ELISA; also called biotinylated goat anti-human kappa light chain
In short: as §1

human ACVR2A [3] = target: T3, human ACVR2A (human, UniProt P27037 20-135, limits assumed); assay: ELISA
T3 construct: also called activin receptor, type II A
T3 sequence (P27037 20-135 limits assumed): as the sequence (P27037 20-135 limits assumed) above
In short: as §1

mouse ACVR2A [4] = target: mouse ACVR2A (mouse, UniProt P27038 20-135, limits assumed); assay: ELISA
Sequence of mouse ACVR2A (P27038 20-135 limits assumed): as the sequence (P27037 20-135 limits assumed) above, with K20R, V73I counted along it
In short: as §1

[5] = target: T4, biotinylated goat anti-human kappa light chain; assay: ELISA, positive control
T4 construct: positive control of the ELISA
In short: as §1
Also: test concentration or dose not given here.

Row | Binder | optical density (Human ACVR2A [1]) [OD] | optical density (Mouse ACVR2A [2]) [OD] | optical density (Goat anti-Human Kappa) [OD] | optical density (human ACVR2A [3]) [OD] | optical density (mouse ACVR2A [4]) [OD] | optical density [5] [OD]
1 | B1 | 3.54 | 3.63 | 3.56 | – | – | –
2 | B2 | – | – | – | 1.97 | 2.25 | 3.24
3 | B3 | – | – | – | 2.38 | 2.46 | 2.96
4 | B4 | – | – | – | 1.65 | 1.73 | 3.23
5 | B5 | 2.1 | 2.39 | 3.45 | – | – | –
6 | B6 | 2.7 | 2.67 | 3.38 | – | – | –
7 | B7 | 1.71 | 1.87 | 3.48 | – | – | –
8 | B8 | 2.8 | 2.96 | 3.49 | – | – | –
9 | B9 | 2.57 | 2.85 | 3.74 | – | – | –
10 | B10 | 2.11 | 2.31 | 3.65 | – | – | –
11 | B11 | 2.13 | 2.25 | 3.26 | – | – | –
12 | B12 | 2.46 | 2.7 | 3.67 | – | – | –
13 | B13 | 2.33 | 2.54 | 3.45 | – | – | –
14 | B14 | 2.4 | 2.91 | 3.61 | – | – | –
15 | B15 | 2.71 | 2.7 | 3.46 | – | – | –
16 | B16 | 1.91 | 2.06 | 3.13 | – | – | –
17 | B17 | 2.41 | 2.57 | 3.5 | – | – | –

Row | Binder | optical density (Human ACVR2A [1]) [OD] | optical density (Mouse ACVR2A [2]) [OD] | optical density (Goat anti-Human Kappa) [OD] | optical density (human ACVR2A [3]) [OD] | optical density (mouse ACVR2A [4]) [OD] | optical density [5] [OD]
18 | B18 | 2.06 | 2.34 | 3.16 | – | – | –
19 | B19 | 2.99 | 2.9 | 3.68 | – | – | –
20 | B20 | 1.82 | 2.02 | 3.36 | – | – | –
21 | B21 | 2.62 | 2.99 | 3.71 | – | – | –
22 | B22 | 2.86 | 2.87 | 3.38 | – | – | –
23 | B23 | 2.02 | 2.31 | 3.48 | – | – | –
24 | B24 | 2.55 | 2.52 | 3.61 | – | – | –
25 | B25 | 2.64 | 2.81 | 3.35 | – | – | –
26 | B26 | 2.61 | 2.59 | 3.71 | – | – | –
27 | B27 | 2.12 | 2.32 | 3.45 | – | – | –
28 | B28 | 2.75 | 2.97 | 3.65 | – | – | –
29 | B29 | 2.51 | 2.63 | 3.55 | – | – | –
30 | B30 | 2.37 | 2.69 | 3.61 | – | – | –
31 | B31 | 1.66 | 1.81 | 3.33 | – | – | –
32 | B32 | 2.69 | 3.08 | 3.65 | – | – | –
33 | B33 | 2.41 | 2.71 | 3.37 | – | – | –
34 | B34 | 2.21 | 2.86 | 3.42 | – | – | –
